Data from patent publication US20210032343A1 (BEIJING HANMI PHARMACEUTICAL, published 2021).

Target: recombinant human PD-1 (product No. 10377-H08H, Beijing Yiqiao Shenzhou) (human, UniProt Q15116 25-167)
Assay: ELISA, recombinant human PD-1 coated at 1 ug/mL, control antibody, anti-human IgG-HRP detection
Method: The coating concentration was 1 μg/mL. The coating amount was 100 μL per well, and the coating was performed at 4° C. overnight. PBST washing was performed five times. The result was sealed at 300 μL/well using PBST containing 1% BSA, and subjected to incubation for 1 hour at 25° C. PBST washing was performed five times. […] PBST washing was performed five times. Subsequently, 100 μL of the horseradish peroxidase-labeled anti-human IgG antibody (product No. AP309P, available from Chemicon) diluted at 1:2,000 in PBST containing 1% BSA was then added to each well, and the cells were incubated for 1 hour at 25° C. PBST washing was performed five times. 100 μL of the colorimetric substrate TMB was added to each well, and color development was allowed to occur for 10 minutes at room temperature. Color development was stopped by adding 100 μL of 1 M H₂SO₄ to each well. The absorbance at 450 nm was read on a microplate reader.

Sequence of recombinant human PD-1 (product No. 10377-H08H, Beijing Yiqiao Shenzhou) (Q15116 25-167 limits assumed): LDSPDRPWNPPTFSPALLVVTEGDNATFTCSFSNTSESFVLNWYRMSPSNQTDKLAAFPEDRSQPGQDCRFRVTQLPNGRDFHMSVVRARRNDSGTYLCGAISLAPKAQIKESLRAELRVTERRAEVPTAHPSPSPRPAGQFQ

- binding result: binds
B1: PD-1 monoclonal antibody (antibody, V domains shown)
VH: QVQLVQSGAEVKKPGSSVKVSCKASGGTFSSTAISWVRQAPGQGLEWMGGIWPSFGTASYAQKFQGRVTITADESTSTAYMELSSLRSEDTAVYYCARAEYSSTGIFDYWGQGTLVTVSS
VL: DIQMTQSPSSVSASVGDRVTITCRASQGISSWLAWYQQKPGKAPKLLISAASSLQSGVPSRFSGSGSGTDFTLTISSLQPEDFATYYCQQANHLPFTFGGGTKVEIK
notes: also called bivalent monoclonal antibody (anti-PD-1)
